Experimental data reported in patent US20250075002A1 (BEIGENE SWITZERLAND, published 2025).

Experiments:
[1] = target: T1, human CD16B (NA2) on NK92mi cells (human, UniProt O75015 17-200); assay: flow cytometry on NK92mi/CD16B (NA2) cells
T1 construct: also called NK92mi/CD16B (NA2); NK92mi/CD16B NA2
T1 chain: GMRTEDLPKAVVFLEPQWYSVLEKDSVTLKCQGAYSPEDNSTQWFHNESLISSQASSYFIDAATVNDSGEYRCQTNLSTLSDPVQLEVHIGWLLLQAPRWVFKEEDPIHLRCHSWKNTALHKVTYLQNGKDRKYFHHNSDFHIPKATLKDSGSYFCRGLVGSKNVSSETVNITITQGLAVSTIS

[2] = target: T2, human CD16A (V158) on NK92mi cells (human, UniProt P08637 17-254); assay: flow cytometry on NK92mi/CD16A cells (V158 by paragraph 201)
T2 construct: NK92mi cells co-transduced with CD16A (V158) and FcRgamma cDNAs; also called NK92mi/CD16A V158; NK92mi/CD16A

[3] = target: T3, human CD16B (NA1) on NK92mi cells (human, UniProt O75015 17-200); assay: flow cytometry on NK92mi/CD16B (NA1) cells; fit not meaningful
T3 construct: also called NK92mi/CD16B (NA1); NK92mi/CD16B NA1
T3 chain: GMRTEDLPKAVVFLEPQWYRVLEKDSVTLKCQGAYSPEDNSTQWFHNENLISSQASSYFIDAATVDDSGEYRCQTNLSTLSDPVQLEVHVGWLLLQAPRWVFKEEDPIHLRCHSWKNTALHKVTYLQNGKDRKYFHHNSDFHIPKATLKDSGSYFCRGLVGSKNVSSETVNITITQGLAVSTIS

[4] = target: T4, human CD16B-His6 (SH) (human, UniProt O75015 17-200); assay: antigen ELISA, coated Human CD16B (SH), HRP anti-human IgG
T4 construct: Bought ECD fragment; also called CD16B SH allotype; human CD16B (SH); not shown: six-histidine tag (His6)

[5] = target: T5, cyno CD16-His6 (cyno, UniProt Q8SPW2 17-208); assay: antigen ELISA, coated Cyno CD16, HRP anti-human IgG; one concentration (paragraph 202 prints 1 mg/ml)
T5 construct: Bought ECD fragment; not shown: six-histidine tag (His6)
T5 sequence (Q8SPW2 17-208): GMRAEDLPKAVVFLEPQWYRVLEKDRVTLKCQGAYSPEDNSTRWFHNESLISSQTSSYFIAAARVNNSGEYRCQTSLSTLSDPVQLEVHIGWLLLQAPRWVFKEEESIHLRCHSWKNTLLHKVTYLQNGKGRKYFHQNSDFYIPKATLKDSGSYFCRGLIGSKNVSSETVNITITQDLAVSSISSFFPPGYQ

[6] = target: T6, human CD16A-His6 (V158) (human, UniProt P08637 17-208); assay: antigen ELISA, coated Human CD16A (V158), HRP anti-human IgG; one concentration (paragraph 202 prints 1 mg/ml)
T6 construct: Bought (Sino Biologics) ECD fragment; also called CD16A 158V; human CD16A (V158); not shown: six-histidine tag (His6)

- EC50 [1]: 0.136 µg/mL
- EC50 [2]: 1.04 µg/mL
- EC50 [3]: ~155000 µg/mL
- binding result [4]: no binding
- binding result [5]: binds
- binding result [6]: binds
B1: LS21 (scFv)
scFv: EVQLVQSGAEVKKPGESLKVSCKASGYTFTSYYMHWVRQAPGQGLEWMGIINPSGGSTSYAQKFQGRVTMTRDTSTSTVYMELSSLRSEDTAVYYCARGSAYYYDFADYWGQGTLVTVSSGGGGSGGGGSGGGGSQPVLTQPSSVSVAPGQTATISCGGHNIGSKNVHWYQQRPGQSPVLVIYQDNKRPSGIPERFSGSNSGNTATLTISGTQAMDEADYYCQVWDNYSVLFGGGTKLTVL
